In the supplement of paper PMC10126150:
± gives the standard deviation of the averaged measurements.

Tested on: ATP
Assay: switch fluorescence ratio, 500 uM ATP over buffer (Cy3 cluster intensity, sum of 5 cycles each) (fold (ratio)); higher = stronger signal-on switching upon ATP binding; sequences stand for … in TCGTCGGCAGCGTCAGATGTGTATAAGAGACAGTTTTTTTTTTTTTTTTTTTTTTTTT…TC
Conditions: aptamer strand: ATP DNA aptamer (quencher-CACCTGGGGGAGTATTGCGGAGGAAGG + anchor), 100 nM annealed; ATP concentration: 500 uM
How it was run: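 For every switch-domain sequence, the fluorescence ratio is the mean of per-cluster values, each being summed target-cycle Cy3 intensity over summed buffer-cycle Cy3 intensity. Clusters outside 100-1000 RFU were excluded. On a modified Illumina MiSeq flow-cell, the Cy3-labelled switching-strand clusters were annealed to 100 nM quencher-labelled ATP aptamer, imaged in selection buffer and then after 15 min with 500 uM ATP at 22 °C. Five such cycles were run, with NaOH stripping and re-annealing between them.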
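Note: ATP exposure 15 min at 22 °C before imaging.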

Sequence | switch fluorescence ratio
AAGGGAGAAC | 0.986 ± 0.0019
AAGGGAGCAC | 1.02 ± 0.023
AAGGGATCGG | 0.994 ± 0.024
AAGGGCATTG | 0.998 ± 0.015
AAGGGCCCTA | 0.9939 ± 0.0018
AAGGGCCGCG | 1 ± 0.017
AAGGGCGCTG | 1.01 ± 0.048
AAGGGCGGGC | 1.07 ± 0.0085
AAGGGCTTAT | 0.981 ± 0.019
AAGGGCTTGC | 1.01 ± 0.041
AAGGGGACCC | 1.04 ± 0.043
AAGGGGATT | 1.01 ± 0.027
AAGGGGCTTG | 0.986 ± 0.036
AAGGGGGACA | 0.992 ± 0.032
AAGGGGGATT | 1.01 ± 0.044
AAGGGGGCCA | 0.982 ± 0.074
AAGGGGGGCT | 0.996 ± 0.03
AAGGGGGGGA | 1.01 ± 0.046
AAGGGGGTCC | 1.03 ± 0.036
AAGGGGGTGG | 1.02 ± 0.059
AAGGGGTATT | 1.01 ± 0.027
AAGGGGTGCA | 0.968 ± 0.058
AAGGGGTGTT | 1.02 ± 0.02
AAGGGGTTAT | 1.02 ± 0.05
AAGGGGTTGC | 1.03 ± 0.022
AAGGGGTTGG | 1.01 ± 0.019

Sequence | switch fluorescence ratio
AAGGGTAAAT | 0.996 ± 0.033
AAGGGTAACA | 0.991 ± 0.019
AAGGGTCTGG | 0.986 ± 0.024
AAGGGTGCGT | 1.01 ± 0.044
AAGGGTGGAG | 0.996 ± 0.026
AAGGGTGGTA | 0.981 ± 0.016
AAGGGTTCAT | 1.031 ± 0.0099
AAGGGTTGCG | 0.985 ± 0.024
AAGGTAACGG | 0.972 ± 0.038
AAGGTAATCC | 1.01 ± 0.039
AAGGTCGTAT | 0.9922 ± 0.009
AAGGTCTTTG | 1.01 ± 0.043
AAGGTGCCGG | 1.0373 ± 0.00076
AAGGTGCCTG | 1.02 ± 0.064
AAGGTGTCGG | 0.9895 ± 0.0037
AAGGTGTGCG | 1.02 ± 0.024
AAGGTGTTGG | 1.04 ± 0.021
AAGGTGTTTT | 1.08 ± 0.016
AAGGTTAATT | 1 ± 0.022
AAGGTTACTC | 1.01 ± 0.029
AAGGTTAGGT | 1.03 ± 0.041
AAGGTTCTTT | 0.988 ± 0.022
AAGGTTGATA | 0.988 ± 0.032
AAGGTTGATG | 0.982 ± 0.02
AAGGTTGCAA | 1.01 ± 0.011
AAGGTTGCGC | 0.986 ± 0.026

Sequence | switch fluorescence ratio
AAGGTTGGTC | 1 ± 0.027
AAGGTTGTAA | 0.985 ± 0.021
AAGGTTTAGT | 1 ± 0.024
AAGGTTTCAA | 0.985 ± 0.018
AAGGTTTGCG | 1.01 ± 0.025
AAGGTTTGTT | 0.996 ± 0.049
AAGTAAAAAT | 1.05 ± 0.036
AAGTAAAGCT | 1.11 ± 0.06
AAGTAATGGG | 0.961 ± 0.041
AAGTACAGGC | 1.27 ± 0.12
AAGTACCCGG | 1.14 ± 0.026
AAGTACTAGC | 1.212 ± 0.0086
AAGTAGGTAT | 1.02 ± 0.011
AAGTAGTCTT | 0.995 ± 0.014
AAGTATGGGA | 1.02 ± 0.028
AAGTATTGGT | 1.02 ± 0.041
AAGTCAATTC | 1.36 ± 0.12
AAGTCACGGT | 1.09 ± 0.02
AAGTCAGTGC | 1.11 ± 0.013
AAGTCATGGA | 1.02 ± 0.027
AAGTCATTTG | 1.017 ± 0.0088
AAGTCGCATA | 1.04 ± 0.017
AAGTCGCGGA | 0.999 ± 0.033
AAGTCGGATG | 1.04 ± 0.079
AAGTCGGGTG | 1.08 ± 0.024
AAGTCTATAA | 1.02 ± 0.046

Sequence | switch fluorescence ratio
AAGTCTGGGC | 1.01 ± 0.036
AAGTCTGGGG | 1.01 ± 0.027
AAGTGAAATT | 1.02 ± 0.018
AAGTGAATAA | 0.998 ± 0.017
AAGTGAGCAG | 1.012 ± 0.0072
AAGTGATGCT | 1.03 ± 0.087
AAGTGCAGGG | 0.9896 ± 0.0057
AAGTGCGACC | 1.03 ± 0.057
AAGTGGAGGG | 0.985 ± 0.021
AAGTGGGGTT | 1.02 ± 0.029
AAGTGGGTTA | 1.02 ± 0.032
AAGTGGTTA | 0.981 ± 0.026
AAGTGTCCCG | 0.994 ± 0.032
AAGTGTCGTG | 0.959 ± 0.024
AAGTGTTAG | 0.966 ± 0.011
AAGTGTTGGC | 1.014 ± 0.01
AAGTGTTTT | 1.016 ± 0.005
AAGTTAAAA | 1.04 ± 0.092
AAGTTAAAAG | 0.975 ± 0.012
AAGTTAAGCC | 1.01 ± 0.047
AAGTTAAGGG | 0.995 ± 0.055
AAGTTACATT | 1.05 ± 0.012
AAGTTATCAT | 0.964 ± 0.019
AAGTTATGAC | 1.03 ± 0.029
AAGTTATTAC | 1 ± 0.032
AAGTTCCGGA | 1.034 ± 0.0072

Sequence | switch fluorescence ratio
AAGTTCGATG | 0.976 ± 0.025
AAGTTCGCCT | 1.09 ± 0.13
AAGTTCGCTG | 1.01 ± 0.065
AAGTTGACCG | 1.04 ± 0.046
AAGTTGGTGT | 1.02 ± 0.043
AAGTTGTATT | 0.9974 ± 0.0019
AAGTTGTCTG | 0.978 ± 0.056
AAGTTGTGA | 0.973 ± 0.035
AAGTTGTTGT | 1.007 ± 0.0025
AAGTTTGGAT | 0.9919 ± 0.005
AAGTTTGGGC | 0.98 ± 0.036
AAGTTTGTCT | 1.004 ± 0.0053
AAGTTTGTTT | 0.99 ± 0.028
AAGTTTTTTT | 1 ± 0.025
AATAAAAGGG | 1 ± 0.03
AATAAAATGG | 0.998 ± 0.028
AATAAATGAT | 1.01 ± 0.022
AATAAATTAA | 0.977 ± 0.031
AATAAGACGG | 1.011 ± 0.0061
AATAAGCACA | 1.2 ± 0.028
AATAAGGGA | 1.03 ± 0.1
AATAAGGGGG | 1.01 ± 0.064
AATAAGTTAA | 1 ± 0.026
AATAATAAGA | 1 ± 0.017
AATAATAGCT | 1.01 ± 0.041
AATAATCGAG | 1.027 ± 0.0093

Sequence | switch fluorescence ratio
AATAATCGGC | 0.994 ± 0.06
AATAATGCAA | 1.07 ± 0.022
AATAATGCGT | 0.994 ± 0.034
AATAATGCTT | 0.978 ± 0.014
AATAATTCTG | 0.984 ± 0.053
AATAATTTCG | 1.007 ± 0.0082
AATACAGGCT | 0.999 ± 0.024
AATACAGTGA | 0.9986 ± 0.00012
AATACGGTAT | 1.05 ± 0.05
AATACTACTA | 1.05 ± 0.053
AATACTGATG | 1.007 ± 0.0032
AATAGACGAA | 1.01 ± 0.043
AATAGAGGGG | 0.9926 ± 0.0071
AATAGCTACT | 1.076 ± 0.01
AATAGGAAGT | 1.011 ± 0.007
AATAGGGCCT | 1.02 ± 0.023
AATAGGGGCT | 1.02 ± 0.054
AATAGGGGTG | 1.01 ± 0.043
AATAGTGGCA | 1.02 ± 0.044
AATAGTGGGC | 1.01 ± 0.043
AATAGTGGGT | 1 ± 0.013
AATAGTTTAT | 0.986 ± 0.022
AATATAATGT | 1.03 ± 0.021
